Assay results as given in publication PMC11536449.
Where two headings read alike, the source gives them in different places.

T1: CmRSM1-GST (Cucumis melo (melon), UniProt A0A1S3CDK8 1-116)
T1 sequence: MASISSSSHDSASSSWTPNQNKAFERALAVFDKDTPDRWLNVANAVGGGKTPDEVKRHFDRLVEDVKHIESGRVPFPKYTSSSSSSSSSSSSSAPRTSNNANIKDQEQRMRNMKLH


Assays:
CmRSM1-GST [1] = target: T1, CmRSM1-GST; experiment: EMSA
CmRSM1-GST [2] = target: T1, CmRSM1-GST; experiment: EMSA; remark: listed apart in the source

Row | Binder | binding result (CmRSM1-GST [1]) | binding result (CmRSM1-GST [2])
1 | P2 probe (CmBr promoter, MYB and MBS motifs) (dsDNA) DNA 1: GACAACAAATTTATAAGTAATTGTTCAACCAACTGAAAACGAGAAAAGTAAATATATCT DNA 2: AGATATATTTACTTTTCTCGTTTTCAGTTGGTTGAACAATTACTTATAAATTTGTTGTC | no binding | –
2 | P1 probe (CmBr promoter, Myb motif) (dsDNA) DNA 1: ACATTTACTTTTAGATGAAATTGTAACAGTTAGCTAAGTCGTTCACTTCGTTGAAATTA DNA 2: TAATTTCAACGAAGTGAACGACTTAGCTAACTGTTACAATTTCATCTAAAAGTAAATGT | – | binds
3 | P3 probe (CmBr promoter, MRE motif) (dsDNA) DNA 1: ACTTAGTTTTGAGATCAAATAACTCCTTAGGTTAGTTAATCATTCATTGATTCAATCAA DNA 2: TTGATTGAATCAATGAATGATTAACTAACCTAAGGAGTTATTTGATCTCAAAACTAAGT | no binding | –
